Source: US20070192906A1

Target: rice storage protein glutelin B1 (rice) (UniProt P14323)

pepsin (enzyme) was tested, and the degradation by pepsin treatment (Western blot) was 90 % degraded.
